Molecular target: T1, human RetL2 (insert of clone DSW240) expressed on 293/EBNA cells (human, UniProt O00451 22-444)
T1 construct: no cleavage sites are stated; also called retL2 expression plasmid
T1 sequence: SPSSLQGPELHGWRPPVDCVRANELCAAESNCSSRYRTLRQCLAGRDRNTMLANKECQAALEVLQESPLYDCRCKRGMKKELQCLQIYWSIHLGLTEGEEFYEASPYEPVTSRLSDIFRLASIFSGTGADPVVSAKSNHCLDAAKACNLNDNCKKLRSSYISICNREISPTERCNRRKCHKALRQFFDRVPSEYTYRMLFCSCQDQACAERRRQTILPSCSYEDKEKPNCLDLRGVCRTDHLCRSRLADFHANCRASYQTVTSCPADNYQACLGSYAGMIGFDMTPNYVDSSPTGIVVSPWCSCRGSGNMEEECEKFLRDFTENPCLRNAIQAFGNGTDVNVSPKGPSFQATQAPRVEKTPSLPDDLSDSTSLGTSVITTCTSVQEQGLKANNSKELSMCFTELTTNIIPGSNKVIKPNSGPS
Experiment: staining of 293/EBNA cells transfected with the insert of clone DSW240
Experimental: Plasmid DNAs (the retL2 expression plasmid, a retL1 expression plasmid for a positive control, and an expression plasmid containing an unrelated protein for a negative control) are transfected into 293/EBNA cells (8 ×10^5 on a 60 mm plate) using the lipofection method. After 48 hr, the cells are washed two times with HBHA buffer (0.5 mg/ml BSA, 0.1% NaN_3, 20 mM HEPES (pH 7.0)) and incubated with 20 ug/ml rat Ret/IgG in Tris-buffered saline plus 1 mM MgCl_2 and CaCl_2 for 60–90 min at room temperature. Following this incubation, the cells are washed four times with HBHA buffer and then fixed with 60% acetone/3% formaldehyde/20 mM HEPES (pH 7.0) for 30 sec. […]

binding result: binds
B1: rat Ret/IgG fusion protein (Fc fusion)
chain: EAPLGLYFSRDAYWERLYVDQPAGTPLLYVHALRDAPGEVPSFRLGQYLYGVYRTRLHENDWIHIDAGTGLLYLNQSLDHSSWEQLSIRNGGFPLLTVFLQVFLGSTAQREGECHWPGCARVYFSFINDTFPNCSSFKARDLCTPETGVSFRIRENRPPGTFYQFRMLPVQFLCPNISVKYKLLEGDGLPFRCDPDCLEVSTRWALDRELQEKYVLEAECAVAGPGANKEKVAVSFPVTVYDEDDSPPTFSGGVGTASAVVEFKRKEGTVVATLQVFDADVVPASGELVRRYTSTLLSGDSWAQQTFRVEHTPNETLVQSNNNSVRATMHNYKLVLNRSLSISESRVLQLVVLVNDSDFQGPGSGVLFLHFNVSVLPVTLNLPMAYSFPVNRRARRYAQIGKVCVENCQEFSGVSIQYKLQPSSTNCSALGVVTSTEDTSGTLYVNDTEALRRPECTELQYTVVATDRQTRRQTQASLVVTVEGTYIAEEVGCPKSCAVNKRRPECEECGGLGSPTGRCEWRQGDGKGITRNFSTCSPSTRTCPDGHCDALESRDINICPQDCLRGPIVGGHERGERQGIKAGYGICNCFPDEKKCFCEPEDSQGPLCDALCRT
notes: Made in COS or CHO cells and purified on Protein A; also called Ret/Ig fusion protein; soluble Ret/IgG fusion protein; not shown: Fc portion of human IgG1 (part of the Fc domain, 700 bp Sal1 fragment from plasmid 2-4, originally from pSAB144)

— patent publication US6861509 (Biogen, dated 2005)
